The supplement of paper PMC12636428

The sequences below were run on Saccharomyces cerevisiae (assay: transcriptional activation domain activity (GFP:mCherry ratio, weighted mean of sorted bins, harmonized to initial dataset scale) (arbitrary fluorescence ratio units); higher = stronger transcriptional activation). Conditions: beta-estradiol 1 µM; induction time 4 h.
In short: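 For this assay, yeast diploids with a GFP reporter carried barcoded protein tiles at URA3, each fused to an estradiol-inducible synthetic transcription factor. Induction was a 1:5 dilution into SC with 1 uM beta-estradiol for 4 hours at 30 °C, followed by sorting into 8 bins by GFP:mCherry ratio and barcode sequencing. Tiles under 50 reads were dropped, and activation activity was calculated as the read-weighted mean of bin median fluorescence, averaged across barcodes and linearly mapped onto the initial dataset scale.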

Sequence	transcriptional activation domain activity
TYTPPVEKPDVEEQSRTRLIGLAALNGASSSEGAFSSSTEFPRQVRVIVPALL	39800
RAVDNSKWWLLGDSFETDVLTFVSLFQFVNAALIFNYGYLFRDRWYRNYLLLV	47900
KKREKKERSRRHRDDDGERRRRHRSRSRSRDRERRHRHRDRSRSRDRRRDDGR	35200
GLLSSCVLIVLVIHHPFLLSDNRHYTFYIWRRVYMFHPIVPYALIPAYLACAW	66700
MRQARGLHCRCPFGYRASLVLCLYLDVLFEGGFLYFYFFVPFFHATTFFFFLL	37700
MPSITLTWPDRAYFYSLLVVSLLSAKLLHVFSHLTTIPIFLFLLYFPTFFFLD	57300
RLGQCVKRYFDSKQVTHLVNAGKYGTGVVSYLFYFMWSYREESRGANFALWCF	79300
KRKACLVCDLICTLLLQGLVSNEELRIDYSHRRCDLWRRQRWIGFVTPLSILE	36400
PAASGSDDDEPIAAKKPSAPRKRKAKVESDSDDEKPIAKKLAAKKPRASKVKA	14100
TPSTCLSFLPFFPLLLPLFFSFPLSLIFFLCNFSFQFFFSSCFLSFYLFVVSF	66100
SEAESEAEAEAEEATEPEVSQEKPKRGRKKKEVEVEIKEKPSRKPAGRPKKEK	12300
PSLPPSHPVPSLSLFCFFVFFFAFFFFFFMPIFYYNLLISHFPFCRCWRCLHM	26200
PVKADEPAAPVEAVKETETAAPVEDAAAPEVAAEAPKEEVKEEKVRSLRTAIS	27300
ASDKQETSSQPEGGKEKEAAKEEKKPEPKKEEPKQESKPAPAPKQEKKPEPKK	32600
MIPFQTGQVMGMLNRIDRLPLKEILTYAMPYLLEKTNVSMIIRQYLWSTLGNH	44100
HWKLNLYFMLTNVIVVLPLYQVYIYLLGCHPKSPLYHHRVKLSVFAWSIWFYC	36200
PSIFFLLFICYFVICSIHVDLCYYDSLFNCLFFISSMFSHNYLFFCLCLCYHV	64200
RILATQFFYVAAFTFLVFHSAFRAARITLPLYQHPLRIAIPVTLTQMGLHATA	64600
VIYRIDKDELTTGMLLVRNNLVELMAASTGPAAHLRVLVVDLVAPSFRSIPRG	44400
LWYRFQVVMIRRYHFHFHLLGYRMTYLRFIQFLNIWYFFIAIACLLFIIVIGA	46300
CTVVFLACTVVYGFMVVTSLLFHLSGFLFHVTTTFPFFFFFFFTLLFFLLHTF	38000
AGSSTFRDKGKGRASDAGPVSRTGDNEGGEESAGEGNQREKKRVKKEVKKAPR	20300
MDLGEERYRRLVSYLFFSFLYLHFIFLYFSFLWFMACGSWQWLNNLFFFISSF	63800
SKGNSINTFLEQVTFQVVPMLIDLCVAIGYFLVAFDAYYALVVAIVTFCYLYV	44100
FQLWKSLNCAYSSVQVTSQGFSIGILFWTLLEYVLHRFLFHLDKLLPDHPIAL	63900

Sequence	transcriptional activation domain activity
RGGKGVEEERGEGGGRGEGERGQGGRGRGGRGAGARGRGGTGEEGEGAGGKQE	51400
MFAHFFFLRACCCPLPFFFCGYVFLIFSSPFSCFCFLCFWFCCFFFSVCFLLF	58700
AASFISRTMLVLARQKFYNWYGVPQRRLYRDQSVHGTTKKRTWLIKLLSPLLF	47200
LLGVGYAMVLAWFMCLFYLFPFLGALTLYFVMDVVDLASRTLYKLLHTLPILV	52500
GALRLAASQEGIKLGDDVKSNVKMVLGKDAQGGFAVSAEVTVSGNGVTKALVD	31300
IQAAGLWQCRYSSYGIECVRYVFFFTMFLFLLRSGWYLSSAFFLGLLWHQLSF	39600
NSTPAKVEEEAEAKPEEAKPEGEEVAKEEEEKKDEEPKPAIGDVVPDAVAVGQ	25300
RQEREGYEDYEDGSRRKHKNRHSRSPSSDGEDRISRKRKSRRAKDVEDSHANS	25500
KAKAGADGDAAPKKKKAASKKDSNGSDAEDSDGEAKPKPKLKKKAAAAGKAKA	29400
IFSLILALIGMIILATIDVVHKIGVTYFACFLMAAGSYVPTVLVHSWHNNNNL	50300
MSPLDQVAEDDLSKRRKPHTKSRHGCIDCRRRRVKCGEEKPCCRTCVRRGVRC	44400
PEALIQFNQVWVNHFKDPFTNIYYHQSPELSGSKYYELIYLRAFICLMFCFQF	55100
MMFETHFWSLSSLLLFFFSFFLFLSLYLGVSILFFQFPFPFPFPFPFFFYLFL	39500
LWQYMEFRILVYIFFGLSFIPLSIFLLFCTCLSSFIFFVAAGIWLFVGTIAFF	54200
GVMIVRKRLLIAIATVYGSPDRGLRRIIQSIGKVLWRHGLLSDQFYSAGEIFS	69800
LYFTCNERVGACPPSFEYIYDTFFASVTSQEFWRSLFDLEAFYMYLGWYAFCV	65600
TAPSATSAAALVTSPATALRVAMVVSRAAAPAAATTVPARARPATPAVVSATC	51300
RGTIRPGFLIYFFILFLWVFQIHCIMQIIVNRIALLHVSPTIVRRLKWGIFAI	71800
VDRSHLELIFGLPIWRLSGILVQTVWYVFQTGFSTLLSLCLFLVSAKRWIVWR	52400
MIIASLVPGGGIGFFYFVFWSLLWLRLFLAFLSIMGSFLCLFTCYMPSFLFFS	33400
ISSISSIFPIFFPYFPSIYLIFFFIFFLPFFPSLPILLFLLFLLFLLFTLPLC	43700
KASARKKRAPKKSDEGKRGEKEGNRSANGSNDEDDDRDSSSSSSSNDEATSRS	11200
GGIIMAFFLRLNFGLWGICIALFGLRGQAELPLLIHVQRHILSIYVIIPRWFW	56300
TFLANILPITFYFYFYLHFLFLFFFFLFSLSAFLFFLFLYFYFLFSPLFLPFI	63700
MDSRPAKRPRKTETEDTLDDTDKKPHKKPPLSCAECRRLKLKVATLAASVIVY	69000

Sequence	transcriptional activation domain activity
AAAAGVPIASDESETEVEEEGSSSADIGQAATTGRGRSPPKQQQQQQSVAAVS	38500
YVDEENQSSNGAVRLWKRHFTLSGIMNRLLRKTVRRNTWIYISVSTLIVQIRR	45700
MVLLDVGWLCISRFILLDSMLLFFTFLTVFCLTKFHNQQYQSFSVDWWVWLFL	67700
FNLYLLSWLHLLSSKSSSLGNSSAWWIRPVEITMMSCYWYIFGYLLLWCTLPT	38200
AKDGELQTKKPRQRKPKAPAATGDADILEVKPKRTRTTRPKVSSYFAEPAAPL	< 6570
EGGRQRERAGGAGGEDSKGEGRREERREEGKGGKGSAEERESREGSARGGEAG	10200
SYYNLLCFSLCVRVCVCFVLLIILSFVSLLCFSFLLCFHCVLPFFFFFVFFFF	49200
KGAPKKSKGEEKEEVVAEETKVEVKVVKETKKVDKAAKAETKKDEVKKVKKVE	46000
MLLKRVHSKVYVQDCLLIGGRSIFVLDMHLFFKLLLFTAASIRNQTVIMLIFV	54100
LHLFGLVLVWVSYLLFWVFLLFSFVYPDWLLALFILRIILFLFSFSVILFYFI	47100
PMAVTLIERNVILGLRNAKTTDQLNTLINSLPFNNTSMLFLRLAMTKLSVIWS	59900
LRLIWVYLYRCHESGSTVTSKLESLLKHFFPPNRLIVVPQEERLEPFVCIVHF	53100
SPENVSLAAVTGVYGLGLNPWPTFDYNMLGLDPLVTPFFTTFNFFLGTLFTLP	74100
PAYKLLVAAIWSLEIVDQAFIGHCVYYYTISNYMSPQVLLFGDVIWTLIIQLV	43000
MFLGFFFLFFYLFIMDHILDFWLLLRIIILIFAYSHCSFLRTLILFFRINFFF	69000
KLIFIFFFFYFFSFFVLLLLLLFLLLLFLPLLMATSACMLGLMFDKLPFFSNI	46300
MSTQGPAKRRGAQATDKPVKRTRVSRACDQCRIAREKCDGAQPTCSTCSTSRR	36700
TYIPCDPLLTIVGGNVPFSSLGLRAFSLAMYSLLVIPGLNLVLPFLFFLLLHL	92200
APPPAAAPSQPASQPAPAEKHEEPAPQPSPEPQPEPQAQIEESKQEPAPEPQA	20300
ESGWIYVSVTTFFTSIALLGVMIACMVLRTHLFIWTVFSPKYLYSMAWSLGQH	55900
TIALMGQDSIYLQVLAGDPNEAQSKNARRVYRLLKRGKHWVLVTLLLSNVIVN	27400
YNIRAKGFNIFNITISVALVFNQYVNPIALAALTWKYYVVYCVWLVCECIFLY	60100
FGSDYTRFYMYMPHPSILPYILGDLFWTFWRGFIDMEMTSKTYLYLFFLLLPP	72300
FVTLFGLAYFILTILPCLDHSCPYRTPMSSLWWYLWHMSLSSATLCLCWLLRL	33600
